From patent US20250043302A1, “MUTATED HYDROXYPHENYLPYRUVATE DIOXYGENASE POLYPEPTIDE, AND CODING GENE AND USE THEREOF” (BEIJING DABEINONG BIOTECHNOLOGY CO., LTD., priority 2021, published 2025)

How the values were obtained:
Assay type in all cases: in vivo
[1] = system: Arabidopsis thaliana T1 plants; test: Mesotrione tolerance of transgenic Arabidopsis thaliana T1 plants (spray, bleached leaf area grade, damage score); set-up: Scores: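 damage score 0-100 computed as Σ(N×S)/(T×M)×100 over grades 0-3 with higher meaning more damage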; conditions: Table 12; for Classification and statistics of the grade of pesticide damage Grade 0: number of plants at grade 0; for Classification and statistics of the grade of pesticide damage Grade 1: number of plants at grade 1; for Classification and statistics of the grade of pesticide damage Grade 2: number of plants at grade 2; for Classification and statistics of the grade of pesticide damage Grade 3: number of plants at grade 3; for Scores: pesticide damage score
Outline: (§1)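 Read-out: per-plant damage grade 0–3 from proportion of bleached leaf area at 7 DAT (1 <50%, 2 >50%, 3 100%). Plants were T1 transformants, glufosinate-selected, plus wild-type CK, sprayed 18 days post-sowing. Rates: topramezone 25–200, isoxaflutole 35–280, mesotrione 52.5–420 g ai/ha.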

[2] = system: Arabidopsis thaliana T1 plants; test: Isoxaflutole tolerance of transgenic Arabidopsis thaliana T1 plants (spray, bleached leaf area grade, damage score); conditions: Table 11; for Classification and statistics of the grade of pesticide damage Grade 0: number of plants at grade 0; for Classification and statistics of the grade of pesticide damage Grade 1: number of plants at grade 1; for Classification and statistics of the grade of pesticide damage Grade 2: number of plants at grade 2; for Classification and statistics of the grade of pesticide damage Grade 3: number of plants at grade 3; for Scores: pesticide damage score;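 on Scores: Weighted damage index from 0 to 100 where higher means more damage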
Outline: as §1

[3] = system: Arabidopsis thaliana T1 plants; test: Topramezone tolerance of transgenic Arabidopsis thaliana T1 plants (spray, bleached leaf area grade, damage score); conditions: Table 10; for Classification and statistics of the grade of pesticide damage Grade 0: number of plants at grade 0; for Classification and statistics of the grade of pesticide damage Grade 1: number of plants at grade 1; for Classification and statistics of the grade of pesticide damage Grade 2: number of plants at grade 2; for Classification and statistics of the grade of pesticide damage Grade 3: number of plants at grade 3; for Scores: pesticide damage score
Outline: as §1

B1: HPPDm-3-02: nucleotide sequence encoding Avena sativa HPPD with A106G+F372A+F383W; vector DBN11784 (nucleic acid)
DNA: ATGCCACCTACTCCAGCTACAGCTACTGGTGCTGCTGCTGCTGCCGTTACTCCTGAGCACGCTGCCAGGTCATTCCCCAGGGTGGTTCGCGTGAACCCCAGATCTGATAGGTTCCCAGTTCTGAGCTTCCACCATGTTGAGCTGTGGTGCGCTGATGCTGCTTCTGCTGCTGGCAGGTTCTCTTTCGCTCTTGGTGCTCCACTCGCTGCTAGATCTGATCTGTCTACAGGAAATAGCGCTCATGCCTCACTCCTGCTTCGCTCAGGTGCTTTGGCCTTCCTCTTCACCGCTCCATATGCTCCCCCACCTCAGGAGGGTGCTACTGCTGCTGCTACAGCCTCCATTCCAAGCTTCTCAGCTGATGCCGCTAGAACCTTCGCTGCTGCTCATGGACTTGCCGTGAGGTCTGTTGGTGTTCGCGTGGCTGATGCTGCTGAGGCTTTCAGAGTTTCCGTTGCCGGCGGAGCTAGGCCAGCTTTCGCTCCTGCTGATTTGGGACATGGTTTCGGCCTGGCTGAGGTTGAGCTTTACGGTGACGTGGTTCTCCGCTTCGTGTCTTACCCAGATGAGACTGACCTGCCTTTCCTTCCCGGCTTCGAGAGAGTTTCCTCTCCTGGTGCCGTGGATTACGGCCTGACAAGGTTCGACCACGTGGTTGGAAACGTTCCCGAGATGGCTCCAGTGATCGATTACATGAAGGGCTTCCTTGGATTCCATGAGTTCGCCGAGTTCACTGCTGAGGACGTGGGAACCACTGAGTCCGGTTTGAACTCTGTGGTTCTCGCCAACAATTCTGAGGCTGTTTTGCTCCCTCTGAATGAGCCTGTGCATGGAACCAAGAGGAGAAGCCAGATTCAAACTTACCTGGAGTACCACGGTGGCCCTGGAGTTCAGCATATCGCCCTTGCTTCTAATGATGTGTTGCGCACACTCAGAGAGATGCGCGCCAGAACCCCCATGGGAGGTTTCGAGTTCATGGCCCCACCACAGGCTAAGTACTACGAGGGCGTTAGAAGGATTGCTGGAGACGTGTTGAGCGAGGAGCAGATCAAGGAGTGCCAAGAGCTGGGTGTTCTTGTGGATAGGGATGACCAGGGCGTTCTGCTTCAAATTGCCACTAAGCCAGTGGGCGACCGCCCTACATTCTGGCTTGAGATGATTCAAAGAATCGGCTGCATGGAGAAGGATGAGGTTGGACAGGAGTACCAAAAGGGCGGATGCGGTGGCTTCGGAAAGGGTAACTTCAGCGAGTTGTTCAAGTCAATCGAGGACTACGAGAAGAGCCTCGAGGTGAAGCAGTCAGTGGTTGCCCAAAAGTCCTGA
modifications: HPPDm-3-02 Nucleotide Sequence
notes: vector DBN11784
- Resistance evaluation ([1]; mesotrione 210 g ai/ha (2×)): Highly resistant
- Classification and statistics of the grade of pesticide damage Grade 0 ([1]; mesotrione 210 g ai/ha (2×)): 16
- Classification and statistics of the grade of pesticide damage Grade 1 ([1]; mesotrione 210 g ai/ha (2×)): 0
- Classification and statistics of the grade of pesticide damage Grade 2 ([1]; mesotrione 210 g ai/ha (2×)): 0
- Classification and statistics of the grade of pesticide damage Grade 3 ([1]; mesotrione 210 g ai/ha (2×)): 0
- Scores ([1]; mesotrione 210 g ai/ha (2×)): 0
- Resistance evaluation ([1]; mesotrione 420 g ai/ha (4×)): Highly resistant
- Classification and statistics of the grade of pesticide damage Grade 0 ([1]; mesotrione 420 g ai/ha (4×)): 14
- Classification and statistics of the grade of pesticide damage Grade 1 ([1]; mesotrione 420 g ai/ha (4×)): 2
- Classification and statistics of the grade of pesticide damage Grade 2 ([1]; mesotrione 420 g ai/ha (4×)): 0
- Classification and statistics of the grade of pesticide damage Grade 3 ([1]; mesotrione 420 g ai/ha (4×)): 0
- Scores ([1]; mesotrione 420 g ai/ha (4×)): 4
- Resistance evaluation ([2]; isoxaflutole 140 g ai/ha (2×)): Highly resistant
- Classification and statistics of the grade of pesticide damage Grade 0 ([2]; isoxaflutole 140 g ai/ha (2×)): 16
- Classification and statistics of the grade of pesticide damage Grade 1 ([2]; isoxaflutole 140 g ai/ha (2×)): 0
- Classification and statistics of the grade of pesticide damage Grade 2 ([2]; isoxaflutole 140 g ai/ha (2×)): 0
- Classification and statistics of the grade of pesticide damage Grade 3 ([2]; isoxaflutole 140 g ai/ha (2×)): 0
- Scores ([2]; isoxaflutole 140 g ai/ha (2×)): 0
- Resistance evaluation ([2]; isoxaflutole 280 g ai/ha (4×)): Highly resistant
- Classification and statistics of the grade of pesticide damage Grade 0 ([2]; isoxaflutole 280 g ai/ha (4×)): 12
- Classification and statistics of the grade of pesticide damage Grade 1 ([2]; isoxaflutole 280 g ai/ha (4×)): 4
- Classification and statistics of the grade of pesticide damage Grade 2 ([2]; isoxaflutole 280 g ai/ha (4×)): 0
- Classification and statistics of the grade of pesticide damage Grade 3 ([2]; isoxaflutole 280 g ai/ha (4×)): 0
- Scores ([2]; isoxaflutole 280 g ai/ha (4×)): 8
- Resistance evaluation ([3]; topramezone 100 g ai/ha (4×)): Highly resistant
- Classification and statistics of the grade of pesticide damage Grade 0 ([3]; topramezone 100 g ai/ha (4×)): 16
- Classification and statistics of the grade of pesticide damage Grade 1 ([3]; topramezone 100 g ai/ha (4×)): 0
- Classification and statistics of the grade of pesticide damage Grade 2 ([3]; topramezone 100 g ai/ha (4×)): 0
- Classification and statistics of the grade of pesticide damage Grade 3 ([3]; topramezone 100 g ai/ha (4×)): 0
- Scores ([3]; topramezone 100 g ai/ha (4×)): 0
- Resistance evaluation ([3]; topramezone 200 g ai/ha (8×)): Highly resistant
- Classification and statistics of the grade of pesticide damage Grade 0 ([3]; topramezone 200 g ai/ha (8×)): 16
- Classification and statistics of the grade of pesticide damage Grade 1 ([3]; topramezone 200 g ai/ha (8×)): 0
- Classification and statistics of the grade of pesticide damage Grade 2 ([3]; topramezone 200 g ai/ha (8×)): 0
- Classification and statistics of the grade of pesticide damage Grade 3 ([3]; topramezone 200 g ai/ha (8×)): 0
- Scores ([3]; topramezone 200 g ai/ha (8×)): 0
